The target in series [1] is Saccharomyces cerevisiae var. boulardii mitochondrial aldehyde dehydrogenase Ald4p (Saccharomyces cerevisiae var. boulardii (NCYC 3264)) (UniProt P46367). As to the kind of experiment: SEC; Sephacryl S-300, buffer G (50 mM Tris/HCl, 17 mM Tris-base, 150 mM NaCl, pH 7.4), 1 ml/min; 200 ul of 60 uM protein by the methods (legend: Ald4p ~20 uM, Ald6p ~60 uM); mass from calibration with standard proteins. (Size exclusion chromatography separates by hydrodynamic size, large species first.)

Series [2] deals with the molecule itself. As to the kind of experiment: cross-linking; BS3 (50-800 uM) with 15 uM protein in 100 mM sodium phosphate pH 7.4, 30 C, 35 min; products on SDS/PAGE (10% gel).
Series [3] deals with the molecule itself. The experiment in a line: SDS/PAGE of the untreated purified protein (SDS- and heat-resistant oligomers); purified protein without cross-linker on SDS/PAGE (10% gel); band not reduced by additional DTT (2 mM).
Series [4] concerns the molecule itself. As to the kind of experiment: SEC; Sephacryl S-300, buffer G (50 mM Tris/HCl, 17 mM Tris-base, 150 mM NaCl, pH 7.4), 1 ml/min; 200 ul of 60 uM protein by the methods (legend: Ald4p ~20 uM, Ald6p ~60 uM); mass from calibration with standard proteins.

The term stoichiometry N denotes a count of units in the complex or per binding partner. Regarding “Saccharomyces cerevisiae var. boulardii mitochondrial aldehyde dehydrogenase Ald4p (from UniProt P46367 25-519) (enzyme)”, in series [1], the stoichiometry N is 3.

B1: Saccharomyces cerevisiae var. boulardii cytosolic aldehyde dehydrogenase Ald6p (wild-type) (enzyme, UniProt P54115 1-500, looked up)
chain: MTKLHFDTAEPVKITLPNGLTYEQPTGLFINNKFMKAQDGKTYPVEDPSTENTVCEVSSATTEDVEYAIECADRAFHDTEWATQDPRERGRLLSKLADELESQIDLVSSIEALDNGKTLALARGDVTIAINCLRDAAAYADKVNGRTINTGDGYMNFTTLEPVGVCGQIIPWNFPIMMLAWKIAPALAMGNVCILKPAAVTPLNALYFASLCKKVGIPAGVVNIVPGPGRTVGAALTNDPRIRKLAFTGSTEVGKSVAVDSSESNLKKITLELGGKSAHLVFDDANIKKTLPNLVNGIFKNAGQICSSGSRIYVQEGIYDELLAAFKAYLETEIKVGNPFDKANFQGAITNRQQFDTIMNYIDIGKKEGAKILTGGEKVGDKGYFIRPTVFYDVNEDMRIVKEEIFGPVVTVAKFKTLEEGVEMANSSEFGLGSGIETESLSTGLKVAKMLKAGTVWINTYNDFDSRVPFGGVKQSGYGREMGEEVYHAYTEVKAVRIKL
notes: Ald6p, cytosolic aldehyde dehydrogenase of S. cerevisiae var. boulardii NCYC 3264; differs from the S. cerevisiae S288c protein by valine for isoleucine at position 163; printed mass 54.4 kDa; Removal of the tag is not mentioned; also called cytosolic Ald6p; wild-type Ald6p; source: E. coli Rosetta (DE3), purified (cobalt agarose, dialysis)
As to B1, the “stoichiometry N” value in series [2] was 2; in series [3], around 4; in series [4], 4.

The values above are taken from article PMC5483954, “Different specificities of two aldehyde dehydrogenases from Saccharomyces cerevisiae var. boulardii” (Bioscience Reports, 2017).
